Reference: the supplement of paper PMC9112550, “Optimization of the antimicrobial peptide Bac7 by deep mutational scanning” (BMC Biology, 2022)

What follows are sequences tested on Escherichia coli TOP10 (assay: shrunken log2 fold change of peptide-encoding DNA abundance (4.5 h post-induction vs induction); higher = less antimicrobial activity (less host growth inhibition)). Conditions: time post-induction: 4.5 h; library: site-saturation at positions 5, 18, 19, 20.
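Note: peptides expressed intracellularly from a pBAD plasmid library in pooled LB shake-flask culture, induced with 0.3% L-arabinose, DNA abundance read by NGS, three biological replicates, DESeq2 with apeglm shrinkage.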

Sequence	shrunken log2 fold change
RRIRPRPPRLPRPRPRPTTQPRP	0.0237
RRIRERPPRLPRPRPRPCTMPRP	0.018
RRIRHRPPRLPRPRPRPQPCPRP	0.0971
RRIRGRPPRLPRPRPRPDMPPRP	0.168
RRIRERPPRLPRPRPRPCVAPRP	0.258
RRIRARPPRLPRPRPRPHDNPRP	0.00651
RRIRFRPPRLPRPRPRPRVSPRP	-0.102
RRIRNRPPRLPRPRPRPHTVPRP	-0.118
RRIRYRPPRLPRPRPRPMLYPRP	-0.877
RRIRERPPRLPRPRPRPCACPRP	-0.78
RRIRFRPPRLPRPRPRPHPPPRP	1.27
RRIRYRPPRLPRPRPRPWLAPRP	0.00503
RRIRWRPPRLPRPRPRPNLIPRP	0.0144
RRIRRRPPRLPRPRPRPQTFPRP	0.264
RRIRARPPRLPRPRPRPNMNPRP	-0.212
RRIRFRPPRLPRPRPRPEQYPRP	-0.234
RRIRYRPPRLPRPRPRPIQYPRP	-0.18
RRIRPRPPRLPRPRPRPFGQPRP	-0.34
RRIRIRPPRLPRPRPRPLVTPRP	-0.105
RRIRNRPPRLPRPRPRPTLIPRP	-0.461
RRIRQRPPRLPRPRPRPVQPPRP	0.0898
RRIRLRPPRLPRPRPRPNSEPRP	-0.0888
RRIRSRPPRLPRPRPRPKQSPRP	0.328
RRIRTRPPRLPRPRPRPMLNPRP	-0.253
RRIRARPPRLPRPRPRPLAIPRP	0.397

Sequence	shrunken log2 fold change
RRIRYRPPRLPRPRPRPDKDPRP	-0.151
RRIRVRPPRLPRPRPRPAIKPRP	-0.202
RRIRGRPPRLPRPRPRPDMQPRP	0.37
RRIRIRPPRLPRPRPRPIEVPRP	-0.0018
RRIRHRPPRLPRPRPRPNVCPRP	-0.0562
RRIRHRPPRLPRPRPRPCGIPRP	-0.0112
RRIRCRPPRLPRPRPRPSTAPRP	0.0354
RRIRNRPPRLPRPRPRPPSAPRP	0.726
RRIRKRPPRLPRPRPRPPREPRP	0.689
RRIRNRPPRLPRPRPRPWNEPRP	-0.233
RRIRRRPPRLPRPRPRPVHMPRP	2.19
RRIRSRPPRLPRPRPRPSKRPRP	-0.126
RRIRQRPPRLPRPRPRPLEYPRP	-0.082
RRIRDRPPRLPRPRPRPVSSPRP	-0.0849
RRIRYRPPRLPRPRPRPTWGPRP	-0.19
RRIRTRPPRLPRPRPRPQCSPRP	0.0299
RRIRCRPPRLPRPRPRPNRTPRP	-0.0547
RRIRQRPPRLPRPRPRPIANPRP	-0.0128
RRIRQRPPRLPRPRPRPSTYPRP	-0.884
RRIRDRPPRLPRPRPRPYWNPRP	-0.602
RRIRKRPPRLPRPRPRPTWEPRP	-0.0667
RRIRRRPPRLPRPRPRPPMRPRP	1.03
RRIRGRPPRLPRPRPRPPLPPRP	1.01
RRIRTRPPRLPRPRPRPWPCPRP	-0.0128
RRIRHRPPRLPRPRPRPQAHPRP	-0.0538

Sequence	shrunken log2 fold change
RRIRGRPPRLPRPRPRPNMLPRP	0.374
RRIRLRPPRLPRPRPRPTYFPRP	-0.451
RRIRMRPPRLPRPRPRPDFFPRP	0.29
RRIRQRPPRLPRPRPRPPEDPRP	0.0255
RRIRARPPRLPRPRPRPNMHPRP	0.0638
RRIRPRPPRLPRPRPRPPACPRP	0.207
RRIRPRPPRLPRPRPRPWIMPRP	-0.236
RRIRVRPPRLPRPRPRPYNQPRP	-0.844
RRIRARPPRLPRPRPRPNGPPRP	0.149
RRIRVRPPRLPRPRPRPAFNPRP	-0.416
RRIRIRPPRLPRPRPRPWIFPRP	-0.498
RRIRMRPPRLPRPRPRPHSSPRP	0.0203
RRIRFRPPRLPRPRPRPCTPPRP	-0.158
RRIRDRPPRLPRPRPRPFPVPRP	-0.0955
RRIRHRPPRLPRPRPRPCCEPRP	-0.366
RRIRCRPPRLPRPRPRPCNWPRP	-0.141
RRIRYRPPRLPRPRPRPCWAPRP	-0.434
RRIRHRPPRLPRPRPRPRHHPRP	-0.0639
RRIRIRPPRLPRPRPRPSEGPRP	-0.0262
RRIRTRPPRLPRPRPRPYQSPRP	-0.465
RRIRHRPPRLPRPRPRPLGLPRP	0.393
RRIRRRPPRLPRPRPRPIRNPRP	0.113
RRIRVRPPRLPRPRPRPATVPRP	-0.154
RRIRCRPPRLPRPRPRPDSHPRP	-0.199
RRIRGRPPRLPRPRPRPNVTPRP	0.35

Sequence	shrunken log2 fold change
RRIRERPPRLPRPRPRPESAPRP	0.056
RRIRVRPPRLPRPRPRPGKQPRP	0.0812
RRIRGRPPRLPRPRPRPTQPPRP	1.12
RRIRNRPPRLPRPRPRPYQMPRP	-0.246
RRIRYRPPRLPRPRPRPSLHPRP	-0.622
RRIRRRPPRLPRPRPRPANNPRP	-0.0615
RRIRGRPPRLPRPRPRPVRCPRP	0.814
RRIRTRPPRLPRPRPRPDTIPRP	-0.0386
RRIRYRPPRLPRPRPRPVSHPRP	-0.00492
RRIRLRPPRLPRPRPRPEYTPRP	-0.0657
RRIRSRPPRLPRPRPRPPRFPRP	0.378
RRIRHRPPRLPRPRPRPWYIPRP	-0.549
RRIRMRPPRLPRPRPRPRVPPRP	0.83
RRIRCRPPRLPRPRPRPGGCPRP	0.153
RRIRERPPRLPRPRPRPWPMPRP	0.00819
RRIRLRPPRLPRPRPRPHGRPRP	0.114
RRIRDRPPRLPRPRPRPHMSPRP	-0.00968
RRIRDRPPRLPRPRPRPWMWPRP	0.00708
RRIRYRPPRLPRPRPRPDYWPRP	-0.134
RRIRLRPPRLPRPRPRPYSFPRP	-0.841
RRIRVRPPRLPRPRPRPTGPPRP	0.164
RRIRPRPPRLPRPRPRPFYSPRP	-0.161
RRIRNRPPRLPRPRPRPLNDPRP	-0.0316
RRIRTRPPRLPRPRPRPNFIPRP	-0.457
RRIRERPPRLPRPRPRPPSYPRP	-0.0583

Sequence	shrunken log2 fold change
RRIRYRPPRLPRPRPRPRGTPRP	0.173
RRIRRRPPRLPRPRPRPMFAPRP	0.24
RRIRLRPPRLPRPRPRPCFKPRP	-0.315
RRIRLRPPRLPRPRPRPEEKPRP	0.0262
RRIRRRPPRLPRPRPRPEAMPRP	-0.0491
RRIRWRPPRLPRPRPRPKRVPRP	0.383
RRIRFRPPRLPRPRPRPMTYPRP	-0.0939
RRIRSRPPRLPRPRPRPTNRPRP	-0.362
RRIRTRPPRLPRPRPRPLGWPRP	0.811
RRIRHRPPRLPRPRPRPKYSPRP	-0.489
RRIRKRPPRLPRPRPRPAYQPRP	0.0163
RRIRVRPPRLPRPRPRPKWHPRP	-0.123
RRIRRRPPRLPRPRPRPHNIPRP	-0.127
RRIRRRPPRLPRPRPRPAHMPRP	0.405
RRIRARPPRLPRPRPRPQGMPRP	0.233
RRIRPRPPRLPRPRPRPVFTPRP	-0.0534
RRIRVRPPRLPRPRPRPICLPRP	0.0369
RRIRGRPPRLPRPRPRPAGKPRP	0.338
RRIRVRPPRLPRPRPRPSLRPRP	0.133
RRIRWRPPRLPRPRPRPFPLPRP	-0.297
RRIRERPPRLPRPRPRPQFVPRP	-0.312
RRIRRRPPRLPRPRPRPMYDPRP	-0.267
RRIRPRPPRLPRPRPRPDDVPRP	-0.0212
RRIRWRPPRLPRPRPRPTTTPRP	0.567
RRIRRRPPRLPRPRPRPDHDPRP	0.335

Sequence	shrunken log2 fold change
RRIRCRPPRLPRPRPRPWKDPRP	0.00196
RRIRHRPPRLPRPRPRPQIGPRP	-0.0135
RRIRCRPPRLPRPRPRPHIWPRP	-0.6
RRIRQRPPRLPRPRPRPNEVPRP	-0.00511
RRIRNRPPRLPRPRPRPMEGPRP	-0.00992
RRIRLRPPRLPRPRPRPCNSPRP	0.165
RRIRCRPPRLPRPRPRPMERPRP	-0.00088
RRIRFRPPRLPRPRPRPLAVPRP	0.249
RRIRSRPPRLPRPRPRPNVKPRP	-0.332
RRIRGRPPRLPRPRPRPPFCPRP	0.592
RRIRMRPPRLPRPRPRPLTIPRP	0.19
RRIRVRPPRLPRPRPRPLNLPRP	-0.304
RRIRARPPRLPRPRPRPWLEPRP	-0.0344
RRIRYRPPRLPRPRPRPIGKPRP	0.0104
RRIRHRPPRLPRPRPRPDWPPRP	0.114
RRIRDRPPRLPRPRPRPCIEPRP	-0.158
RRIRYRPPRLPRPRPRPAGDPRP	-0.232
RRIRQRPPRLPRPRPRPWQQPRP	-0.333
RRIRRRPPRLPRPRPRPPEAPRP	0.493
RRIRPRPPRLPRPRPRPDCLPRP	0.0136
RRIRKRPPRLPRPRPRPANKPRP	0.142
RRIRPRPPRLPRPRPRPWWMPRP	0.0483
RRIRCRPPRLPRPRPRPRCSPRP	-0.0164
RRIRDRPPRLPRPRPRPFFSPRP	0.115
RRIRFRPPRLPRPRPRPQACPRP	-0.0456
